Columns and labels:
[1] = system: MS2 coat protein; assay: apparent KD of MS2 coat protein; designed switch direction (-1 OFF switch, 1 ON switch): 1; higher = weaker reporter binding
In short: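 Three titration conditions were used: no input, 200 uM small-molecule ligand, and an oligonucleotide input. In each, SNAP-549-labelled MS2 coat protein was raised from 0.7 or 1.5 nM, doubling, to 3 µM over designed RNA switches transcribed on Illumina chips by stalled E. coli RNA polymerase. Curve fits of normalised cluster fluorescence gave values whose per-design median over clusters is the apparent KD.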

[2] = system: MS2 coat protein; assay: apparent KD of MS2 coat protein; higher = weaker reporter binding; settings: Eterna round: R107
In short: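 On-chip transcription from Illumina sequencing clusters produced the designed RNA switches. These were titrated with SNAP-549-labelled MS2 coat protein (twofold steps, 0.7 or 1.5 nM to 3 µM) in 100 mM Tris-HCl pH 7.5, 80 mM KCl, 4 mM MgCl2, with or without constant ligand. The apparent KD given is the per-design median of normalised cluster binding-curve fits.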

[3] = input ligand: microRNA oligo, concentration not stated
[4] = Eterna round: R95, input ligand: FMN 200 uM
[5] = Eterna round: R95, input ligand: microRNA oligo, concentration not stated
[6] = Eterna round: R95, input ligand: none
[7] = input ligand: theophylline 20 uM
[8] = input ligand: theophylline 2 mM
[9] = input ligand: tryptophan 2.4 mM

| Sequence | apparent KD of MS2 coat protein ([1]; input ligand: FMN 200 uM) [nM] | apparent KD of MS2 coat protein [1, 3] [nM] | apparent KD of MS2 coat protein ([1]; input ligand: none) [nM] | apparent KD of MS2 coat protein [1, 4] [nM] | apparent KD of MS2 coat protein [1, 5] [nM] | apparent KD of MS2 coat protein [1, 6] [nM] | further results |
| --- | --- | --- | --- | --- | --- | --- | --- |
| AAAACAUGAGGAUCACCCAUGUGUAAAAGAUACCGGAUGGUGCAGGAUAUAUCCCAUUAAAGUGGAUAGAAGGGUGGCAUCAAG [Eternabot solution 46] (Eterna round: R96, puzzle: Same State NG 3) | 20.8 | 32.5 | 32.1 |  |  |  |  |
| AAACACAUGAGGAUCACCCAUGUAGCACCAUUGAGGCGCACAUAGGAUAUCCGGUCCAAAAGACCGGAGAAGGGUGAAAGAAAA [Veandi] (Eterna round: R96, puzzle: Same State NG 3) | 59.7 | 371 | 328 |  |  |  |  |
| AAACAUGAGCGAGGAUAUGCAGAGGAUCACCCUGUAGAAGGCGCAUGUAAAACAACAUGAGGAUCACCCAUGUCAUGUACAUGA (Eterna round: R96, puzzle: Same State NG 1) | 19.4 | 15.3 | 20.2 |  |  |  |  |
| AAACGGUCGCUGCGGCAACCACAUGAGGAUCACCCAUGUACAUAGGAUAUCGCCUAAAAUACUGGCGAGAAGGGUGAUUAAAGA [Onbiriza] (Eterna round: R96, puzzle: Same State NG 3) | 28.7 | 17.9 | 73.7 |  |  |  |  |
| AAAGAAAACGCAGGAUAUCCCGGAAAAGAUCCGGGAGAAGGGUGACCGGUACAUGAGGAUCACCCAUGUAGAGCAAAGGCUCAA [Ceonbeti] (Eterna round: R96, puzzle: Same State NG 1) | 232 | 133 | 128 |  |  |  |  |
| AACAAUCUAUCUGAGGAUAUCAUGAAUAAAACAUGAGGAUCACCCAUGUGCAGGAAAACUGCAUAUGAGAAGGCAGAUAGAUUGU [Mat - Same State 2 - Mod - D11] (puzzle: Same State 2) |  |  |  | 69.3 | 2610 | 2140 |  |
| AACAAUCUAUCUGAGGAUAUCAUGAAUUAAACAUGAGGAUCACCCAUGUGCAGGAAAACUGCAUAUGAGAAGGCAGAUAGAUUGA [salish99_ss2_r3_032] (puzzle: Same State 2) |  |  |  | 40.2 | 707 | 58.7 |  |
| AACCAACAAAUAAAACAAGCGUGCUCGUCACAUGAGGAUCACCCAUGUUUAAGCGCUGUUCCUACAUCCGCAGCGCC [Inbitiar] (puzzle: Sensor for hsa-mir-208a) |  |  |  | 178 | 32.5 | 232 |  |
| AACCCGAUGGAAGGAUAUGGCACCUUAUUGGUGCCAGAAGGUCCAAACAUGAGGAUCACCCAUGUGGGCCGGUCGAAAGACCGG [Fiskers NG1ss - 11] (Eterna round: R96, puzzle: Same State NG 1) | 32.4 | 53.2 | 75.2 |  |  |  |  |
| AACUGUUUCUGAGGAUAUCAGUAGUAUGCCAAUUGAGAAGGCAGUACAUGAGGAUCACCCAUGUUGUGGUUUGAUAGAAUGAUA [JR_SSNG1_Sub003] (Eterna round: R96, puzzle: Same State NG 1) | 182 | 133 | 214 |  |  |  |  |
| AAGAGAGGAAGCGAGGAUAUCGUGGGAGGGACAUGAGGAUCACCCAUGUAGGAUGUAGAGAGGAACGAGAAGGCGCAGGAAAGAA [JR_SS2_Sub073] (puzzle: Same State 2) |  |  |  | 49 | 67.7 | 79.2 |  |
| AAGAUGCUCGUAGGAUAUUGGAAAGGAAGUGUACAAGAAGGACGGUGUCACAUGAGGAUCACCCAUGUUACAGUCUAAGGACUA [PowerStrip SSNG 1.16] (Eterna round: R96, puzzle: Same State NG 1) | 21.5 | 13.2 | 20.3 |  |  |  |  |
| AAGGUGCAGGUACAGGAUAUGUUGCUCGUAACAUGAGGAUCACCCAUGUACCUAUGAGAUUAAAUGCAGAAGGGUGCACACCAAA [Mat - Same State 2 - Mod of UCT - D91] (Eterna round: R96, puzzle: Same State 2) | 70.6 | 168 | 731 |  |  |  |  |
| AAGGUGCAGGUACAGGAUAUGUUGCUCGUAACAUGAGGAUCACCCAUGUACCUAUGAGAUUAAAUGCAGAAGGGUGCACACCAAA [Mat - Same State 2 - Mod of UCT - D91] (puzzle: Same State 2) |  |  |  | 73 | 484 | 302 |  |
| AAUAAGUUCAGCUCGUCUUGCGCCGACUGACAUGAGGAUCACCCAUGUGGAUUCCAAGAGAUCCAUUGGCGUGUUUC [Erisdian] (puzzle: Sensor for hsa-mir-208a) |  |  |  | 37.9 | 87.6 | 79 |  |
| AAUCGUUUGAUAGGAUAUCGCUAUACAUGAGGAUCACCCAUGUUUACCACGCUGGUUUUUCGUACUGAGAAGGAUUCUGAUGAU [JL JR sub007 mod 7] (Eterna round: R96, puzzle: Same State NG 2) | 36.1 | 30.4 | 42.5 |  |  |  |  |
| AAUUAAGAUUGAGGAUAUCACGUCGAUUAGACGUGAGAAGGCGAUCAUAACAUGAGGAUCACCCAUGUAUUACAUGAAUUAAUU [SSNG1/5-B2] (Eterna round: R96, puzzle: Same State NG 1) | 31.9 | 26.2 | 36.6 |  |  |  |  |
| AAUUUAAUACAUGAGGAUCACCCAUGUAAUACUAGUAAGAUCUAGGAUAUCAGCUCGAUUAGAGCUGAGAAGGAGAUCACAUGU [SSNG3/19-C2] (Eterna round: R96, puzzle: Same State NG 3) |  | 82.9 |  |  |  |  |  |
| ACACAGCUGGGUGAGGAUAUCGGUGGUAAAACAUGAGGAUCACCCAUGUCCGAAGCUCGGACUUCCGAGAAGGCGCCCGGCUGCA [Areronanma] (puzzle: Same State 2) |  |  |  | 12.4 | 86.4 | 151 |  |
| ACAGAGUGAAGACAGGAUAUUCGCGAUGGCACAUGAGGAUCACCCAUGUUUUGAGCACAUAAACAGAAGAAGGGUUAAAACUCAG [Zadier] (Eterna round: R96, puzzle: Same State 2) | 13.6 | 74.1 | 104 |  |  |  |  |
| ACAGAGUGAAGACAGGAUAUUCGCGAUGGCACAUGAGGAUCACCCAUGUUUUGAGCACAUAAACAGAAGAAGGGUUAAAACUCAG [Zadier] (puzzle: Same State 2) |  |  |  | 15 | 119 | 362 |  |
| ACAUGAGACGCAGGAUAUCUUGUACCUACAUGUGACAUGAGGAUCACCCAUGUGGUAAGUAUGAUAGAGAAGGGCGAGAUAUGU [Equivalance 56 - Jieux - Same State NG 2] (Eterna round: R96, puzzle: Same State NG 2) | 19.7 | 31.6 | 58.9 |  |  |  |  |
| UUUAACAAGAACGUCCUGAGUGACAAGCUACGAGGACCGGUACGGCCGCCACUCGUACCAAAACAUGAGGAUCACCCAUGUUAAA [theeternabot_exclusion_MS2_Trp_A_44] |  |  |  |  |  |  | apparent KD of MS2 coat protein ([2]; input ligand: arginine 13.2 mM): 13.4 nM; apparent KD of MS2 coat protein [2, 7]: 19.3 nM; apparent KD of MS2 coat protein [2, 8]: 21.1 nM |
| UUUAAGAACCGAAGGAGCGCCAGAAAUAAGAACGCUACAUGAGGAUCACCCAUGUAAUAAGGGCAGGUAGGUCGCGGAAUUUAAA [last] |  |  |  |  |  |  | apparent KD of MS2 coat protein ([2]; input ligand: arginine 13.2 mM): 17.9 nM; apparent KD of MS2 coat protein ([2]; input ligand: none): 21.2 nM; apparent KD of MS2 coat protein [2, 7]: 33.4 nM; apparent KD of MS2 coat protein [2, 8]: 24.7 nM; apparent KD of MS2 coat protein [2, 9]: 21.4 nM |
| UUUGAUAGGACAGAUACCAGCGUGUUGUUGAACAUGAGGAUCACCCAUGUAGUGAUCGAGCGCCCUUGGCAGCUGGUUUGUUAGG [7.O] |  |  |  |  |  |  | apparent KD of MS2 coat protein ([2]; input ligand: arginine 13.2 mM): 102 nM; apparent KD of MS2 coat protein [2, 7]: 434 nM; apparent KD of MS2 coat protein [2, 9]: 307 nM |
| UUUUAAAGCAUGGCGUAUCGGAAAACCGAUACCAGUACAGAAAUGUACCCUUGGCAGCGGCAUUUUACAUGAGGAUCACCCAUGU [Ex Theophylline A 2] |  |  |  |  |  |  | apparent KD of MS2 coat protein ([2]; input ligand: arginine 13.2 mM): 16 nM; apparent KD of MS2 coat protein [2, 7]: 18.4 nM; apparent KD of MS2 coat protein [2, 9]: 14.5 nM |
